According to article PMC10397247:
Read-outs that look alike come from different tables or passages of the source.

Legend:
Experiment in all cases: two-hybrid library CCNG1;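 note: natural log of median RNA to DNA barcode read ratio; higher means stronger binding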
[1] = target: T1, O3-bA
T1 chain: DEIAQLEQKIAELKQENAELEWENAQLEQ

[2] = target: T2, O12-bA
T2 chain: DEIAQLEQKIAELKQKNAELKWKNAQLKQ

[3] = target: T3, O9-bA; conditions: mean of both orientations
T3 chain: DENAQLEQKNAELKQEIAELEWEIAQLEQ

[4] = target: T4, O7-bA
T4 chain: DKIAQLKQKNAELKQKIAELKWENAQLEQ

[5] = target: T5, O8-bA
T5 chain: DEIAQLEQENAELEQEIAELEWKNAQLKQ

[6] = target: T6, O2-bA
T6 chain: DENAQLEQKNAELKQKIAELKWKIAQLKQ

[7] = target: T7, O10-bA
T7 chain: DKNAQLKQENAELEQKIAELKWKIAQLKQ

[8] = target: T8, O6-bA
T8 chain: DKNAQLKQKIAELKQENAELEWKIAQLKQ

[9] = target: T9, O15-bA
T9 chain: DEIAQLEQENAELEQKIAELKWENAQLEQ

[10] = target: T10, O4-bA
T10 chain: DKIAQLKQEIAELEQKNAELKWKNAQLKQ

[11] = target: T11, O14-bA
T11 chain: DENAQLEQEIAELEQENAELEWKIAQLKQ

[12] = target: T12, O5-bA
T12 chain: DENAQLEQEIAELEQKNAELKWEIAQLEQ

[13] = target: T13, O11-bA
T13 chain: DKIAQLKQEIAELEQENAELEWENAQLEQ

[14] = target: T14, O16-bA
T14 chain: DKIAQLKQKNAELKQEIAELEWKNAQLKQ

[15] = target: T15, O13-bA
T15 chain: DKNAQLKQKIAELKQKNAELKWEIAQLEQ

[16] = target: T16, 4H2503-bA
T16 chain: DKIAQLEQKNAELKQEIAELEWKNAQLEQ

[17] = target: T17, 4H2588-bA
T17 chain: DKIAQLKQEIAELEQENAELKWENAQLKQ

[18] = target: T18, 4H741-bA
T18 chain: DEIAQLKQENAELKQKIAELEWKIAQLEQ

[19] = target: T19, 4H3277-bA
T19 chain: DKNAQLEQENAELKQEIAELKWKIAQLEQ

[20] = target: T20, 4H319-bA
T20 chain: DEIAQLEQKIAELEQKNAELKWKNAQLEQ

[21] = target: T21, 4H3057-bA
T21 chain: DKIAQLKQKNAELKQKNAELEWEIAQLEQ

[22] = target: T22, 4H477-bA
T22 chain: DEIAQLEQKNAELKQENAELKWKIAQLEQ

[23] = target: T23, 4H2473-bA
T23 chain: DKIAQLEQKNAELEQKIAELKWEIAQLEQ

[24] = target: T24, 4H2692-bA
T24 chain: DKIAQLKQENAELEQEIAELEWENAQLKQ

[25] = target: T25, 4H348-bA
T25 chain: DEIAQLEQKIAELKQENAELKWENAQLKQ

[26] = target: T26, 4H40-bA
T26 chain: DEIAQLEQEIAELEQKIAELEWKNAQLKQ

[27] = target: T27, P11A-bS
T27 chain: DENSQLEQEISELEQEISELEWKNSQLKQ

[28] = target: T28, 4H2915-bA
T28 chain: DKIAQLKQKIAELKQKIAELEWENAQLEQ

[29] = target: T29, 4H2839-bA
T29 chain: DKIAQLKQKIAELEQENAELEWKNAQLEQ

[30] = target: T30, 4H492-bA
T30 chain: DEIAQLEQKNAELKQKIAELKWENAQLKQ

[31] = target: T31, 4H2717-bA
T31 chain: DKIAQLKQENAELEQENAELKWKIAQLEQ

[32] = target: T32, 4H2568-bH
T32 chain: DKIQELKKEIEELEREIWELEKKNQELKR

[33] = target: T33, 4H3907-bH
T33 chain: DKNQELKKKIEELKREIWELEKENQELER

[34] = target: T34, 4H344-bH
T34 chain: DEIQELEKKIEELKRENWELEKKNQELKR

[35] = target: T35, 4H363-bH
T35 chain: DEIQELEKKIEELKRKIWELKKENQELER

[36] = target: T36, 4H470-bH
T36 chain: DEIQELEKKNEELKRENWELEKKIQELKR

[37] = target: T37, 4H3189-bA
T37 chain: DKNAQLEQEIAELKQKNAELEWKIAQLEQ

[38] = target: T38, 4H2619-bH
T38 chain: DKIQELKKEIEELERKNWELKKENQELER

[39] = target: T39, 4H3961-bH
T39 chain: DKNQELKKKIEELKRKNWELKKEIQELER

[40] = target: T40, 4H2745-bH
T40 chain: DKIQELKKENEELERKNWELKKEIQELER

[41] = target: T41, 4H3631-bN
T41 chain: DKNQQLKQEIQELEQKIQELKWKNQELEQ

[42] = target: T42, 4H3817-bN
T42 chain: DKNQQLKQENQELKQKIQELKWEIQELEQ

[43] = target: T43, 4H906-bN
T43 chain: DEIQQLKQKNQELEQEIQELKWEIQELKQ

[44] = target: T44, 4H850-bN
T44 chain: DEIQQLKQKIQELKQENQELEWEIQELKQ

[45] = target: T45, 4H3974-bN
T45 chain: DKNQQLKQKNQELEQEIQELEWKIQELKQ

[46] = target: T46, 4H3638-bN
T46 chain: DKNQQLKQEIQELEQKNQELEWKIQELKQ

[47] = target: T47, 4H619-bN
T47 chain: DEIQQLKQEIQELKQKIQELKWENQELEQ

[48] = target: T48, 4H570-bN
T48 chain: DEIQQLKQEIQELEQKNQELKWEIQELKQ

[49] = target: T49, 4H584-bN
T49 chain: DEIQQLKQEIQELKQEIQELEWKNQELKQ

DKNAQLKQENAELEQKIAELKWKIAQLKQ [O10-bA] gave an interaction score [1] of -1.28, an interaction score [2] of -0.395 and an interaction score [3] of 1.74. The interaction score [4] was 0.923, the interaction score [5] was 0.126 and the interaction score [6] was 1.79. For the same binder, the interaction score ([7]; mean of both orientations) was 0.0957, the interaction score [8] was 0.6 and the interaction score [9] was 0.0908. The interaction score [10] was -0.577, the interaction score [11] was -1.3 and the interaction score [12] was -0.944. For the same binder, the interaction score [13] was 0.88, the interaction score [14] was 0.945 and the interaction score [15] was 0.636.

For DKIAQLEQKNAELEQKIAELKWEIAQLEQ [4H2473-bA], the interaction score [16] was 0.82, the interaction score [17] was -1.02 and the interaction score [18] was -1.42. For the same binder, the interaction score [19] was -1.53, the interaction score [20] was -0.981 and the interaction score [21] was 0.511. The interaction score [22] was -0.946, the interaction score [23] was 0.144 and the interaction score [24] was 0.426. The interaction score [25] was -1.44, the interaction score [26] was -0.325 and the interaction score [27] was -0.676. The interaction score [28] was 0.904, the interaction score [29] was -0.648 and the interaction score [30] was -1.09. The interaction score [31] was -0.42.

DKIQELKKEIEELEREIWELEKKNQELKR [4H2568-bH] was tested, and the interaction score [32] was 2.17, the interaction score [33] was 1.31 and the interaction score [34] was 0.802. The interaction score [35] was 1.72, the interaction score [36] was -1.26 and the interaction score [37] was 0.615. It also gave an interaction score [38] of 1.65, an interaction score [39] of 2.42 and an interaction score [40] of -0.189.

DKNQQLKQEIQELEQKIQELKWKNQELEQ [4H3631-bN] was tested, and the interaction score [41] was -0.0832, the interaction score [42] was -0.125 and the interaction score [43] was -0.602. The interaction score [44] was -1.06, the interaction score [45] was -0.31 and the interaction score [46] was -1.15. The interaction score [47] was -0.252, the interaction score [7] was 0.22 and the interaction score [48] was -1.51. The interaction score [49] was 0.98.
